# Experimental data taken from the domain aggregation screens of Martell et al. (2025).
# Test: soluble fraction after stress (log2 fold change); higher = more stays soluble; pooled small domains, quantitative proteomics
# Settings: stress: 75 degC
# 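Also: 20 min heating vs room temperature control held 20 min.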
row,Sequence,soluble fraction (log2)
1,HMEDGEVTVPDLRGLTIKEAGTILEKLGLHLSPVGTGLAVRQDVAPGSKVARDTTITVEFEPPDIQVLR,0.374
2,HMEDIKHVVANNIKKYRKEERLTLQQLSYLTGVSKTMLNQIETEKSSPSITILWRISSGLKIPLSKLISSP,-1.58
3,HMEDIPENIRYKFLLKELKENEHLNILDKENIARKLTEIDLPELEKELLENEILNSTIKDYLGIKLV,0.494
4,HMEDKFEYQGELKSLIEPTSFSELVSALNVRDTLQAIIDFAMREEDTSGYEELKVRQNDYIQEYLNSIGNF,-0.761
5,HMEDKFEYQGERKSLIYPTSFSELTEALGVRNMLQSIIDFATRDEDTSGYEEMKERQNEYIQEYL,-0.0262
6,HMEDKKQVLYELITDKSYRPLRFKELAVLLMVPKALRGELKQTLDELIKEGKITVDSSSRYRAA,0.599
7,HMEDLDKIISAYLDENPQIVSDYGKGNKKAVNSAIGFVMKSTGGKYSSSDIVDAVRSMIVSISV,-0.667
8,HMEDNYYENKINYLFGYLDEADKEISVNSILDFHLAHRTNPEFVFEPKKNTNPLIWKYLSNSNLLY,0.398
9,HMEDPLGDLIGRIAAATGRPVQDIVAEVHRVVTDHFDGNLRVEAAAVILARKYGVAFEDKLSALQRSV,0.0325
10,HMEDSAKRHQIMDGARRVFMDLGFDGASMNEIARAAGVSKGTLYVYFTDKNRLFEAIVEQESL,-1.27
11,HMEDSEYDRLLAEIDEGIRKAIETLEPVELSPQNARVRRIQHQIIEKYQLHSDSVGEEPYRRVRIL,-0.596
12,HMEDSHIYPVSFNGKMRFKLELPVSMNKKEIEEVVLQHEDAQKWLNGQNPKKVIVVPKRIINIV,0.0193
13,HMEDTVNVPIQINGKLRHVIQVQIGTSEEEIQKIALSEEQVKKFTDGHEILKVMVPKGKLVSIVI,-1.04
14,HMEDVLVTQIIQLKHVDANDMKTLFTPLLSRGSSQLLAYPQSNVLIITDTRSNIKKITEILDIIDKS,-3.02
15,HMEDVRSLTGPEKAAIILLSLGEEHGQGVWRMFDDEEVKEVSQIMANLGTISASVVEKLLVEFVSQMST,-0.96
16,HMEDYYKILGVQSNSNPDDIKKAYRKLSLKHHPDRGGDASEFKKINEAYQTLGTPEKRKMYDMQQNN,-0.169
17,HMEEEPALLRDLLAKTLEFGLIPQLSHHPALADRTQQLASAVRAAGSASALRNAAASLKSLWIDVDQ,-0.0158
18,HMEEFDLNAYITKINSAATLNALKQAYAEANSAALSVKDKDAQRKIIVEKDKRKAELIQETAG,0.453
19,HMEEIALTDILNRFLSSLSLEQRKIFMRRYWYLSPIKEIATEYGMSESKIKMSLFRSRNELKKLLEKEGI,-0.499
20,HMEEINTAPVFKNIIEIAEYAKTKFTTVEEIPKMIEFIETANSKLDNPHDEESVNELINALSTNIRKNV,0.347
21,HMEEITLIAEDEGLRLDTWLTDKLKDYSRSYIQKLMEDELVLVNGKARKANYRIKTGDEIHVSIPEPE,-0.0663
22,HMEELLVAVKADGSIWADGRPITPDGLASFIDSKPADAVLNLAVDKKAPFAAFVKVVDVAKEKKSGRFVIR,-0.41
23,HMEELPIIVAQRFLNIFRQLHIFSDERREAFNKMLLELPPEVKSIFQSLPGGTPLQEYMEDLEQKSK,-0.721
24,HMEELTPLQKYVFDYESDISDEVDMRAIKGLENANDVYDYYANVRGWEGDPDLEDDLDNIYRQVKARFA,0.0255
25,HMEEMTIRQKRTMIFFIEATKHILQEDGYDHLTIREIAQRAGYNAATLYHYFRDLDELIIYGSVG,-0.439
26,HMEEPEELYRVKILIYNLLVRNGPGILYTRLRRADYPGEYGIYEEKNGYGKISATLSEWISLNTEYVQRLD,-3.72
27,HMEEVYVPDIRDKSISDAKKILSQMGLKYRIEGEGYDDSTVIKDQTPKPGALLAKDSVVIAYINE,0.0833
28,HMEEYLENLTQSKLLHMLDQLSPAYKTVFTLFVLDELSHEEISKMLNISIGTSKSNLFRARKVMRVLMESE,-0.273

row,Sequence,soluble fraction (log2)
1,HMEFDIDAAIHAALEPQAVMRAWFGHEGREYPEDFGVVFFRGWESFTHQEKVEAVRDAKKVLDRAVR,-1.18
2,HMEFDSLINYEVKKKETLFSISKKFKIEINDLLSFNTELKNNKLKKNSIIIIPLKKKIVESQNFEKQKIID,-1.49
3,HMEFENIEQRKQYWSDLYRELKAGQDAYAKELKKGTEGYTQDELDILKEFTDEAKKQMEAAGVEATDEFAS,-0.0427
4,HMEFLLAIQPFVLLTDHANLTFLREQTDSMMKRIQINISGFEIEFRYVPGLTNILPDKMSRV,0.146
5,HMEFQEQLYRLRKQAGLSQEELSHIIGVSRQAVQKWEAGSARPDLDNLIALASHFKLSLDQLVGLT,-1.01
6,HMEFQSIGGKIRIGREREHLTQAELAQKLSVTRQAVSNWERDKTLPDIYMIREIAEIFGLTLDEFMEGAKK,-1.02
7,HMEGDAFAFTGDIQKDLLSITAVHPMRREAVDALIAKAGASWAIVEKLLAHGELTEAKHDGHLFYLRKF,-1.19
8,HMEGIAEILPASVRQKYGLIGLYDALRGLHFPGNMEEIKAARQRLAFEDTLMFSLTLSMMQYS,-0.146
9,HMEGIAYDINTAPEHIDLKAEDMMATFNIGKTALWRWVKQKILPPPYEYRSQAAHWTIGQIRDWKTA,-0.125
10,HMEGLDDKTKIILFAGDKKEQEYSLADLKSKLNITENLTESELIKLLEKQGYVLDVNANNEFMFKKD,-0.012
11,HMEGNFFADIRQELMRELDQEAEWSDVQILEKIDDLVLLRTRRSSLTVNEKEQLRKELFYSVRK,-0.345
12,HMEGRTVMATTAVNVRSGPGTSYKILGVLYPGHTAQQIGNTRYGWAQVTWKGHTAYIAARYLRDS,-2.71
13,HMEGSLQEDKVKEYQDRFKEELSNDLNTANSITVLYDLIKDDTLNGTTKRYLIEDFDKILSLDLIKE,0.167
14,HMEGSVTVMVNGESVTMTGKQNYIFVDVFDWYSFDLSAGKGRAIATLVNGKEAEFSQPLANGDNIELYWKE,-2.15
15,HMEGTAAAVALKGLMEQSGVDLREVMAAVESRGYYPKGTPFENYDPAFVSGVLVGAWDQVYKMILDQRPIP,-0.692
16,HMEGVSPQTVQEHIRRFIAAEDPASPLSDEALREALGNLGINASRRTVAKYRGEMGIPSSAQRKR,-0.0573
17,HMEGVSSESVKEMLKSIIDGEDPHNPVSDQRITDILNSRGINISRRTVAKYRDELGIASSSRRKRY,0.298
18,HMEGYLYLSESQNELILKNLKTPLKYNLYNASGKLIKKGNIKNTLDISELPKGVYIFTSSDNSFSKKFLKT,-1.55
19,HMEHAETDTRERILVVAERLFRQLGYQKTTVADIAKELRMSPANVYRFFDSKKSIHEGVARTL,-0.896
20,HMEHETTQLELNAPGQRLDAALALALPDTSRAQIQQWIKQGLVTDQAGTALLQASLKLKSPLNVVLQRPI,-0.215
21,HMEHIDVSGRAFDVSVSRLKRARRLTMRIDTHKQLVKISAPLHVESSTIRAFLARNQNWLEQQVEKR,-0.839
22,HMEHLTATERHLVAYLEAHLGQVPSLSITKLSQEANVSTASIVRTMKKLGYDGFTAFKHAIKQQLR,-2.67
23,HMEHTPHGVALLRTLMDQYGLKAADLANELGSKSNVSNILNGRRALTVSHIKMLAERFNLPADAFI,-1.33
24,HMEIALNDKQILLFSNKLVHEPSFASKYSKVGESYDDFAIRISENLTIPDKVQEYLPYLEKVGFNI,-0.622
25,HMEIDDPWLILGINAGSSIEIAQKAWKDLASQNHPDKLIANGVPKELLGMANEKLAIINGAYDKILKAHKI,-0.295
26,HMEIETPEIRAIHDLLELLANKAKKPEQEQFVQAHPEVQWAKVEANKNGTFAVGKVKAYLKTLQA,-0.39
27,HMEIGNVIAKLRVSNGLNQREFAKKLEVSNGAVAMWETNKRQPDLEMIKKISNLFDVPTDYILGAGTFQ,-0.838
